From IntAct's records for PubMed 31515488

B1: Centrosomal protein POC5 (Homo sapiens), Q8NA72 (parent)
chain: MSSDEEKYSLPVVQNDSSRGSSVSSNLQEEYEELLHYAIVTPNIEPCASQSSHPKGELVPDVRISTIHDILHSQGNNSEVRETAIEVGKGCDFHISSHSKTDESSPVLSPRKPSHPVMDFFSSHLLADSSSPATNSSHTDAHEILVSDFLVSDENLQKMENVLDLWSSGLKTNIISELSKWRLNFIDWHRMEMRKEKEKHAAHLKQLCNQINELKELQKTFEISIGRKDEVISSLSHAIGKQKEKIELMRTFFHWRIGHVRARQDVYEGKLADQYYQRTLLKKVWKVWRSVVQKQWKDVVERACQARAEEVCIQISNDYEAKVAMLSGALENAKAEIQRMQHEKEHFEDSMKKAFMRGVCALNLEAMTIFQNRNDAGIDSTNNKKEEYGPGVQGKEHSAHLDPSAPPMPLPVTSPLLPSPPAAVGGASATAVPSAASMTSTRAASASSVHVPVSALGAGSAATAASEEMYVPRVVTSAQQKAGRTITARITGRCDFASKNRISSSLAIMGVSPPMSSVVVEKHHPVTVQTIPQATAAKYPRTIHPESSTSASRSLGTRSAHTQSLTSVHSIKVVD
B2: mRNA-decapping enzyme 1A (Homo sapiens), Q9NPI6 (parent)
chain: MEALSRAGQEMSLAALKQHDPYITSIADLTGQVALYTFCPKANQWEKTDIEGTLFVYRRSASPYHGFTIVNRLNMHNLVEPVNKDLEFQLHEPFLLYRNASLSIYSIWFYDKNDCHRIAKLMADVVEEETRRSQQAARDKQSPSQANGCSDHRPIDILEMLSRAKDEYERNQMGDSNISSPGLQPSTQLSNLGSTETLEEMPSGSQDKSAPSGHKHLTVEELFGTSLPKEQPAVVGLDSEEMERLPGDASQKEPNSFLPFPFEQLGGAPQSETLGVPSAAHHSVQPEITTPVLITPASITQSNEKHAPTYTIPLSPVLSPTLPAEAPTAQVPPSLPRNSTMMQAVKTTPRQRSPLLNQPVPELSHASLIANQSPFRAPLNVTNTAGTSLPSVDLLQKLRLTPQHDQIQTQPLGKGAMVASFSPAAGQLATPESFIEPPSKTAAARVAASASLSNMVLAPLQSMQQNQDPEVFVQPKVLSSAIPVAGAPLVTATTTAVSSVLLAPSVFQQTVTRSSDLERKASSPSPLTIGTPESQRKPSIILSKSQLQDTLIHLIKNDSSFLSTLHEVYLQVLTKNKDNHNL
partner: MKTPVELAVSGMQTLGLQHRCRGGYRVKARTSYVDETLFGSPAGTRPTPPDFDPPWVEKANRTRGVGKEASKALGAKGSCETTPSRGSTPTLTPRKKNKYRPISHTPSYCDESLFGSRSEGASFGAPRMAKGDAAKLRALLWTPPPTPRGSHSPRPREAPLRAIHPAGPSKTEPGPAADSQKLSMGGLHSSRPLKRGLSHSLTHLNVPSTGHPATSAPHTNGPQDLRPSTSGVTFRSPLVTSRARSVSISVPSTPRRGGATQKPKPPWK
B3: Nucleoporin p58/p45 (Homo sapiens), Q9BVL2 (parent)
chain: MSTGFSFGSGTLGSTTVAAGGTSTGGVFSFGTGASSNPSVGLNFGNLGSTSTPATTSAPSSGFGTGLFGSKPATGFTLGGTNTGIATTITTGLTLGTPATTSAATTGFSLGFNKPAASATPFALPITSTSASGLTLSSALTSTPAASTGFTLNNLGGTTATTTTASTGLSLGGALAGLGGSLFQSTNTGTSGLGQNALGLTLGTTAATSTAGNEGLGGIDFSSSSDKKSDKTGTRPEDSKALKDENLPPVICQDVENLQKFVKEQKQVQEEISRMSSKAMLKVQEDIKALKQLLSLAANGIQRNTLNIDKLKIETAQELKNAEIALRTQKTPPGLQHEYAAPADYFRILVQQFEVQLQQYRQQIEELENHLATQANNSHITPQDLSMAMQKIYQTFVALAAQLQSIHENVKVLKEQYLGYRKMFLGDAVDVFETRRAEAKKWQNTPRVTTGPTPFSTMPNAAAVAMAATLTQQQQPATGPQPSLGVSFGTPFGSGIGTGLQSSGLGSSNLGGFGTSSGFGCSTTGASTFGFGTTNKPSGSLSAGFGSSSTSGFNFSNPGITASAGLTFGVSNPASAGFGTGGQLLQLKKPPAGNKRGKR
B4: Four and a half LIM domains protein 2 (Homo sapiens), Q14192 (parent)
chain: MTERFDCHHCNESLFGKKYILREESPYCVVCFETLFANTCEECGKPIGCDCKDLSYKDRHWHEACFHCSQCRNSLVDKPFAAKEDQLLCTDCYSNEYSSKCQECKKTIMPGTRKMEYKGSSWHETCFICHRCQQPIGTKSFIPKDNQNFCVPCYEKQHAMQCVQCKKPITTGGVTYREQPWHKECFVCTACRKQLSGQRFTARDDFAYCLNCFCDLYAKKCAGCTNPISGLGGTKYISFEERQWHNDCFNCKKCSLSLVGRGFLTERDDILCPDCGKDI
partner: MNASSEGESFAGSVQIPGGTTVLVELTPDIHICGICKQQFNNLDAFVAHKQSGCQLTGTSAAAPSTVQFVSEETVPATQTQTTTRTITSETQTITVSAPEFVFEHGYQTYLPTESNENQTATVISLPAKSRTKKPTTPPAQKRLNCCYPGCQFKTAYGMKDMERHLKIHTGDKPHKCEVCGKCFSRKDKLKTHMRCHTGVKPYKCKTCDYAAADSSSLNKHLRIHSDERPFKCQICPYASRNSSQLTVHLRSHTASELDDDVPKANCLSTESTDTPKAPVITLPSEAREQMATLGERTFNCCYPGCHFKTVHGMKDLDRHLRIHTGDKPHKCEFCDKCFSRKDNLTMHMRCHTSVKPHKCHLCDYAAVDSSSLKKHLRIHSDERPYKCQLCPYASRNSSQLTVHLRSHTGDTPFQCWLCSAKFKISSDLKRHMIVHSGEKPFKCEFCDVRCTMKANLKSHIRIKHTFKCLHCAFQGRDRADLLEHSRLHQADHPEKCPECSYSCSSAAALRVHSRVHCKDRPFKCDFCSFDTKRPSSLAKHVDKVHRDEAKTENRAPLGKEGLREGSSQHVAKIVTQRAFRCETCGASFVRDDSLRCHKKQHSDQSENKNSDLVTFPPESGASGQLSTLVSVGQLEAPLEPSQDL
B5: Cell division cycle 7-related protein kinase (Homo sapiens), O00311 (parent)
chain: MEASLGIQMDEPMAFSPQRDRFQAEGSLKKNEQNFKLAGVKKDIEKLYEAVPQLSNVFKIEDKIGEGTFSSVYLATAQLQVGPEEKIALKHLIPTSHPIRIAAELQCLTVAGGQDNVMGVKYCFRKNDHVVIAMPYLEHESFLDILNSLSFQEVREYMLNLFKALKRIHQFGIVHRDVKPSNFLYNRRLKKYALVDFGLAQGTHDTKIELLKFVQSEAQQERCSQNKSHIITGNKIPLSGPVPKELDQQSTTKASVKRPYTNAQIQIKQGKDGKEGSVGLSVQRSVFGERNFNIHSSISHESPAVKLMKQSKTVDVLSRKLATKKKAISTKVMNSAVMRKTASSCPASLTCDCYATDKVCSICLSRRQQVAPRAGTPGFRAPEVLTKCPNQTTAIDMWSAGVIFLSLLSGRYPFYKASDDLTALAQIMTIRGSRETIQAAKTFGKSILCSKEVPAQDLRKLCERLRGMDSSTPKLTSDIQGHASHQPAISEKTDHKASCLVQTPPGQYSGNSFKKGDSNSCEHCFDEYNTNLEGWNEVPDEAYDLLDKLLDLNPASRITAEEALLHPFFKDMSL
partner: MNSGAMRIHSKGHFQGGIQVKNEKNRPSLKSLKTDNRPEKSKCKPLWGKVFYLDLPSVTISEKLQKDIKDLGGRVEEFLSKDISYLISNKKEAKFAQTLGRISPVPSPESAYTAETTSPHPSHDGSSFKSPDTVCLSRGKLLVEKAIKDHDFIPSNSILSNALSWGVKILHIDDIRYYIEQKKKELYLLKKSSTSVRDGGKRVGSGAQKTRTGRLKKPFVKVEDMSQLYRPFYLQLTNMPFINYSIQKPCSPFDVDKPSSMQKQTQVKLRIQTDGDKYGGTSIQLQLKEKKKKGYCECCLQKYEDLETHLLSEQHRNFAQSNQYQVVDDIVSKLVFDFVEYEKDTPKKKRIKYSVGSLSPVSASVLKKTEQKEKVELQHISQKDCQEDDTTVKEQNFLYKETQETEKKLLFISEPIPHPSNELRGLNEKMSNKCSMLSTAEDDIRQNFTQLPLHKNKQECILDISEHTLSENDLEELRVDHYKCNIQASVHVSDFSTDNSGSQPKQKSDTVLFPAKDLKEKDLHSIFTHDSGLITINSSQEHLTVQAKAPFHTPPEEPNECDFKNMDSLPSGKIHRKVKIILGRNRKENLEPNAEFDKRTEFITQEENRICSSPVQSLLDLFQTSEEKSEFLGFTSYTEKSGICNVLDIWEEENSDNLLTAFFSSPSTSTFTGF

Variants of: B1
Settings: with cetn1_human CETN1, Q12798
Sequence of cetn1_human CETN1, Q12798 (Q12798 whole entry): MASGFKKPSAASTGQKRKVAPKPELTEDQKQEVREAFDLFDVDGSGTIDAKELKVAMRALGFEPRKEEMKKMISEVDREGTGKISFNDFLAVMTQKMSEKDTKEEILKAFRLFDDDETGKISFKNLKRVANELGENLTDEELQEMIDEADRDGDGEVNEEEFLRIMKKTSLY

effect of a mutation on the interaction | Variant
with no effect | D148N
with no effect | H36R

Variants of: B1
Settings: with cetn2_human CETN2, P41208
Sequence of cetn2_human CETN2, P41208 (P41208 whole entry): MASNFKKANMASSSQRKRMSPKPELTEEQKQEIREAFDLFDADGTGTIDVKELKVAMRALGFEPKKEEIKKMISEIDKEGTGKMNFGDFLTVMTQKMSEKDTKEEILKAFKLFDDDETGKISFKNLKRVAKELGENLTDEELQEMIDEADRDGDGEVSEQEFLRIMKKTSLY

effect of a mutation on the interaction | Variant
with no effect | H36R

Variants of: B2
Settings: with rita1_human RITA1, Q96K30

effect of a mutation on the interaction | Variant
with no effect | A297G

Variants of: B3
Settings: with nup62_human NUP62, P37198
Sequence of nup62_human NUP62, P37198 (P37198 whole entry): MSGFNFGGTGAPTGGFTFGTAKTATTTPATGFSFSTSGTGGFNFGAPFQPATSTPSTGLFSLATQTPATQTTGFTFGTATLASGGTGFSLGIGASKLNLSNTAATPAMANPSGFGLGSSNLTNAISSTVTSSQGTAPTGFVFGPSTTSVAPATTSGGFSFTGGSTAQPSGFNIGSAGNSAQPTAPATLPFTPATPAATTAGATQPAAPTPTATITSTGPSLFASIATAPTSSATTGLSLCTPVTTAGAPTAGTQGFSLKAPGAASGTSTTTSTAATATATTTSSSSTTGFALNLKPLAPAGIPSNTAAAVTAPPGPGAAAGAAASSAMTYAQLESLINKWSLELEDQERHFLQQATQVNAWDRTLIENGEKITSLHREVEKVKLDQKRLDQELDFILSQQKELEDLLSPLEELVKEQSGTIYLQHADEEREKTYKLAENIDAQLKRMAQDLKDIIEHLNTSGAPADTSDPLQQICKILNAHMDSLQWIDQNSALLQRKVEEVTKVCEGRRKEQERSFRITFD

effect of a mutation on the interaction | Variant
with no effect | A34T

Variants of: B3
Settings: with traf1_human TRAF1, Q13077
Sequence of traf1_human TRAF1, Q13077 (Q13077 whole entry): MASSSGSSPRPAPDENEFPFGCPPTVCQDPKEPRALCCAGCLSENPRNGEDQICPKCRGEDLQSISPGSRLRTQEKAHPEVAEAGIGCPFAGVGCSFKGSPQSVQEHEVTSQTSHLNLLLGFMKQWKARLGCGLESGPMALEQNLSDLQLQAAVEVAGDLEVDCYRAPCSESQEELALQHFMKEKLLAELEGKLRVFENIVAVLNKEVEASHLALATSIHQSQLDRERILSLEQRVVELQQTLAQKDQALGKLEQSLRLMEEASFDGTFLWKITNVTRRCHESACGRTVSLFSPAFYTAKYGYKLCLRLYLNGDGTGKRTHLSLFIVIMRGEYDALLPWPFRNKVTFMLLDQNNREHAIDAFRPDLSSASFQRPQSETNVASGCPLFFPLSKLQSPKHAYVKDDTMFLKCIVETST

effect of a mutation on the interaction | Variant
with no effect | A34T

Variants of: B4
Settings: with zf64b_human ZFP64, Q9NTW7

effect of a mutation on the interaction | Variant
with no effect | A37S
with no effect | N95K

Variants of: B5
Settings: with dbf4a_human DBF4, Q9UBU7

effect of a mutation on the interaction | Variant
with no effect | Q456H
with no effect | Q106R
with no effect | K416T
with no effect | I99L
